In patent publication US11306156:
One block for each substance: values may come before it.

What was measured:
[1] = target: D3H44 light chain Q124E_T178E_T180E with N-terminal HA or FLAG tag; experiment: LCCA (SPR tag readout), L1:L2 DNA 1:3, normalized to 1:1; competing light chain m9
[2] = target: D3H44 light chain Q124E_T180E with N-terminal HA or FLAG tag; experiment: as above
[3] = target: D3H44 light chain Q124K_T178R with N-terminal HA or FLAG tag; experiment: LCCA (SPR tag readout), L1:L2 DNA 1:9, normalized to 1:1; competing light chain m18
[4] = target: D3H44 light chain Q124E_T178E_T180E with N-terminal HA or FLAG tag; experiment: LCCA (SPR tag readout), L1:L2 DNA 1:9, normalized to 1:1; competing light chain m9
[5] = target: D3H44 light chain Q124E_Q160E_T180E with N-terminal HA or FLAG tag; experiment: LCCA (SPR tag readout), L1:L2 DNA 1:3, normalized to 1:1; competing light chain m12
[6] = target: D3H44 light chain Q124E_T180E with N-terminal HA or FLAG tag; experiment: as above
[7] = target: D3H44 light chain F116C_Q124R_T178R with N-terminal HA or FLAG tag; experiment: LCCA (SPR tag readout), L1:L2 DNA 1:3, normalized to 1:1; competing light chain m18
[8] = target: D3H44 light chain Q124K_T178R with N-terminal HA or FLAG tag; experiment: as above
[9] = target: D3H44 light chain Q124E_T180E with N-terminal HA or FLAG tag; experiment: LCCA (SPR tag readout), L1:L2 DNA 1:3, normalized to 1:1; competing light chain m19
[10] = target: D3H44 light chain Q124R_T178R with N-terminal HA or FLAG tag; experiment: LCCA (SPR tag readout), L1:L2 DNA 1:3, normalized to 1:1; competing light chain m13
[11] = target: D3H44 light chain T178R with N-terminal HA or FLAG tag; experiment: as above
[12] = target: D3H44 light chain Q124K_T178R with N-terminal HA or FLAG tag; experiment: as above
[13] = target: D3H44 light chain Q124R_T178K with N-terminal HA or FLAG tag; experiment: as above
[14] = target: D3H44 light chain Q124R_T178R with N-terminal HA or FLAG tag; experiment: LCCA (SPR tag readout), L1:L2 DNA 1:3, normalized to 1:1; competing light chain m10
[15] = target: D3H44 light chain Q124E_T180E with N-terminal HA or FLAG tag; experiment: LCCA (SPR tag readout), L1:L2 DNA 1:3, normalized to 1:1; competing light chain m15
[16] = target: D3H44 light chain Q124R_T178R with N-terminal HA or FLAG tag; experiment: LCCA (SPR tag readout), L1:L2 DNA 1:9, normalized to 1:1; competing light chain m10
[17] = target: D3H44 light chain Q124K_T178R with N-terminal HA or FLAG tag; experiment: LCCA (SPR tag readout), L1:L2 DNA 1:9, normalized to 1:1; competing light chain m13
[18] = target: D3H44 light chain Q124E_Q160E_T180E with N-terminal HA or FLAG tag; experiment: LCCA (SPR tag readout), L1:L2 DNA 1:9, normalized to 1:1; competing light chain m12
[19] = target: D3H44 light chain Q124E_T180E with N-terminal HA or FLAG tag; experiment: as above
[20] = target: D3H44 light chain Q124E_Q160E_T180E with N-terminal HA or FLAG tag; experiment: LCCA (SPR tag readout), L1:L2 DNA 1:3, normalized to 1:1; competing light chain m17
[21] = target: D3H44 light chain Q124E_Q160E_T180E with N-terminal HA or FLAG tag; experiment: LCCA (SPR tag readout), L1:L2 DNA 1:3, normalized to 1:1; competing light chain m9
[22] = target: D3H44 light chain Q124R_T178R with N-terminal HA or FLAG tag; experiment: LCCA (SPR tag readout), L1:L2 DNA 1:9, normalized to 1:1; competing light chain m18
[23] = target: D3H44 light chain Q124R_T178K with N-terminal HA or FLAG tag; experiment: as above
[24] = target: D3H44 light chain Q124E_Q160E_T180E with N-terminal HA or FLAG tag; experiment: LCCA (SPR tag readout), L1:L2 DNA 1:9, normalized to 1:1; competing light chain m9
[25] = target: D3H44 light chain Q124R_T178R with N-terminal HA or FLAG tag; experiment: LCCA (SPR tag readout), L1:L2 DNA 1:3, normalized to 1:1; competing light chain m18
[26] = target: D3H44 light chain Q124R_T178K with N-terminal HA or FLAG tag; experiment: as above
[27] = target: D3H44 light chain Q124R_Q160K_T178R with N-terminal HA or FLAG tag; experiment: LCCA (SPR tag readout), L1:L2 DNA 1:3, normalized to 1:1; competing light chain m13
[28] = target: D3H44 light chain Q124E_T180E with N-terminal HA or FLAG tag; experiment: LCCA (SPR tag readout), L1:L2 DNA 1:3, normalized to 1:1; competing light chain m14
[29] = target: D3H44 light chain Q124E_Q160E_T180E with N-terminal HA or FLAG tag; experiment: LCCA (SPR tag readout), L1:L2 DNA 1:3, normalized to 1:1; competing light chain m15
[30] = target: D3H44 light chain Q124E_Q160E_T180E with N-terminal HA or FLAG tag; experiment: LCCA (SPR tag readout), L1:L2 DNA 1:9, normalized to 1:1; competing light chain m15
[31] = target: D3H44 light chain Q124R_T178R with N-terminal HA or FLAG tag; experiment: LCCA (SPR tag readout), L1:L2 DNA 1:3, normalized to 1:1; competing light chain m11
[32] = target: D3H44 light chain Q124E_T178E with N-terminal HA or FLAG tag; experiment: LCCA (SPR tag readout), L1:L2 DNA 1:3, normalized to 1:1; competing light chain m9
[33] = target: D3H44 light chain Q124E_V133D with N-terminal HA or FLAG tag; experiment: as above
[34] = target: D3H44 light chain T178R with N-terminal HA or FLAG tag; experiment: LCCA (SPR tag readout), L1:L2 DNA 1:9, normalized to 1:1; competing light chain m18
[35] = target: D3H44 light chain Q124E_T178E with N-terminal HA or FLAG tag; experiment: LCCA (SPR tag readout), L1:L2 DNA 1:9, normalized to 1:1; competing light chain m9
[36] = target: D3H44 light chain Q124E_T180E with N-terminal HA or FLAG tag; experiment: as above
[37] = target: D3H44 light chain Q124E_V133D with N-terminal HA or FLAG tag; experiment: as above
[38] = target: D3H44 light chain Q124R_T178R with N-terminal HA or FLAG tag; experiment: LCCA (SPR tag readout), L1:L2 DNA 1:9, normalized to 1:1; competing light chain m16
[39] = target: D3H44 light chain T178R with N-terminal HA or FLAG tag; experiment: LCCA (SPR tag readout), L1:L2 DNA 1:3, normalized to 1:1; competing light chain m18
[40] = target: D3H44 light chain Q124E_Q160E_T180E with N-terminal HA or FLAG tag; experiment: LCCA (SPR tag readout), L1:L2 DNA 1:3, normalized to 1:1; competing light chain m19
[41] = target: D3H44 light chain Q124R_T178R with N-terminal HA or FLAG tag; experiment: LCCA (SPR tag readout), L1:L2 DNA 1:9, normalized to 1:1; competing light chain m13
[42] = target: D3H44 light chain Q124E_Q160E_T180E with N-terminal HA or FLAG tag; experiment: LCCA (SPR tag readout), L1:L2 DNA 1:9, normalized to 1:1; competing light chain m19
[43] = target: D3H44 light chain Q124R_T178R with N-terminal HA or FLAG tag; experiment: LCCA (SPR tag readout), L1:L2 DNA 1:3, normalized to 1:1; competing light chain m16
[44] = target: D3H44 light chain Q124R_T178R with N-terminal HA or FLAG tag; experiment: LCCA (SPR tag readout), L1:L2 DNA 1:9, normalized to 1:1; competing light chain m11

H2L2:H2L1 normalized median ratio [1]: 92%
H2L2:H2L1 normalized median ratio [2]: 96%
H2L2:H2L1 normalized median ratio [3]: 10%
H2L2:H2L1 normalized median ratio [4]: 91%
H2L2:H2L1 normalized median ratio [5]: 92%
H2L2:H2L1 normalized median ratio [6]: 96%
H2L2:H2L1 normalized median ratio [7]: 6%
H2L2:H2L1 normalized median ratio [8]: 8%
H2L2:H2L1 normalized median ratio [9]: 96%
H2L2:H2L1 normalized median ratio [10]: 4%
H2L2:H2L1 normalized median ratio [11]: 4%
H2L2:H2L1 normalized median ratio [12]: 4%
H2L2:H2L1 normalized median ratio [13]: 4%
H2L2:H2L1 normalized median ratio [14]: 8%
H2L2:H2L1 normalized median ratio [15]: 96%
H2L2:H2L1 normalized median ratio [16]: 9%
H2L2:H2L1 normalized median ratio [17]: 13%
H2L2:H2L1 normalized median ratio [18]: 90%
H2L2:H2L1 normalized median ratio [19]: 87%
H2L2:H2L1 normalized median ratio [20]: 94%
Substance: D3H44 Fab heavy chain Q179K with C-terminal ABD2-His6 tag

H1L1:H1L2 normalized median ratio [21]: 13%
H1L1:H1L2 normalized median ratio [2]: 24%
H1L1:H1L2 normalized median ratio [22]: 82%
H1L1:H1L2 normalized median scalar value ln(r1/f1) [22]: 1.55
H1L1:H1L2 normalized median ratio [23]: 78%
H1L1:H1L2 normalized median scalar value ln(r1/f1) [23]: 1.28
H1L1:H1L2 normalized median ratio [24]: 18%
H1L1:H1L2 normalized median ratio [6]: 15%
H1L1:H1L2 normalized median ratio [25]: 87%
H1L1:H1L2 normalized median scalar value ln(r1/f1) [25]: 1.9
H1L1:H1L2 normalized median ratio [26]: 89%
H1L1:H1L2 normalized median scalar value ln(r1/f1) [26]: 2.08
H1L1:H1L2 normalized median ratio [10]: 76%
H1L1:H1L2 normalized median scalar value ln(r1/f1) [10]: 1.14
H1L1:H1L2 normalized median ratio [12]: 85%
H1L1:H1L2 normalized median scalar value ln(r1/f1) [12]: 1.74
H1L1:H1L2 normalized median ratio [13]: 84%
H1L1:H1L2 normalized median scalar value ln(r1/f1) [13]: 1.63
H1L1:H1L2 normalized median ratio [27]: 69%
H1L1:H1L2 normalized median scalar value ln(r1/f1) [27]: 0.79
H1L1:H1L2 normalized median ratio [28]: 31%
H1L1:H1L2 normalized median ratio [29]: 11%
H1L1:H1L2 normalized median ratio [15]: 16%
H1L1:H1L2 normalized median ratio [17]: 89%
H1L1:H1L2 normalized median scalar value ln(r1/f1) [17]: 2.05
H1L1:H1L2 normalized median ratio [30]: 22%
H1L1:H1L2 normalized median ratio [19]: 11%
Substance: D3H44 Fab heavy chain L143E_K145T_Q179D with C-terminal ABD2-His6 tag

H1L1:H1L2 normalized median ratio [31]: 86%
H1L1:H1L2 normalized median scalar value ln(r1/f1) [31]: 1.83
H1L1:H1L2 normalized median ratio [1]: 8%
H1L1:H1L2 normalized median ratio [32]: 14%
H1L1:H1L2 normalized median ratio [2]: 15%
H1L1:H1L2 normalized median ratio [33]: 8%
H1L1:H1L2 normalized median ratio [34]: 75%
H1L1:H1L2 normalized median scalar value ln(r1/f1) [34]: 1.1
H1L1:H1L2 normalized median ratio [3]: 88%
H1L1:H1L2 normalized median scalar value ln(r1/f1) [3]: 2.02
H1L1:H1L2 normalized median ratio [4]: 8%
H1L1:H1L2 normalized median ratio [35]: 15%
H1L1:H1L2 normalized median ratio [36]: 17%
H1L1:H1L2 normalized median ratio [37]: 12%
H1L1:H1L2 normalized median ratio [5]: 12%
H1L1:H1L2 normalized median ratio [6]: 30%
H1L1:H1L2 normalized median ratio [38]: 88%
H1L1:H1L2 normalized median scalar value ln(r1/f1) [38]: 1.96
H1L1:H1L2 normalized median ratio [39]: 89%
H1L1:H1L2 normalized median scalar value ln(r1/f1) [39]: 2.14
H1L1:H1L2 normalized median ratio [8]: 88%
H1L1:H1L2 normalized median scalar value ln(r1/f1) [8]: 2
H1L1:H1L2 normalized median ratio [40]: 11%
H1L1:H1L2 normalized median ratio [10]: 85%
H1L1:H1L2 normalized median scalar value ln(r1/f1) [10]: 1.75
H1L1:H1L2 normalized median ratio [12]: 70%
H1L1:H1L2 normalized median scalar value ln(r1/f1) [12]: 0.84
H1L1:H1L2 normalized median ratio [13]: 84%
H1L1:H1L2 normalized median scalar value ln(r1/f1) [13]: 1.69
H1L1:H1L2 normalized median ratio [27]: 73%
H1L1:H1L2 normalized median scalar value ln(r1/f1) [27]: 1
H1L1:H1L2 normalized median ratio [14]: 92%
H1L1:H1L2 normalized median scalar value ln(r1/f1) [14]: 2.46
H1L1:H1L2 normalized median ratio [28]: 27%
H1L1:H1L2 normalized median ratio [15]: 16%
H1L1:H1L2 normalized median ratio [16]: 92%
H1L1:H1L2 normalized median scalar value ln(r1/f1) [16]: 2.45
H1L1:H1L2 normalized median ratio [41]: 83%
H1L1:H1L2 normalized median scalar value ln(r1/f1) [41]: 1.59
H1L1:H1L2 normalized median ratio [42]: 25%
H1L1:H1L2 normalized median ratio [43]: 92%
H1L1:H1L2 normalized median scalar value ln(r1/f1) [43]: 2.41
H1L1:H1L2 normalized median ratio [44]: 85%
H1L1:H1L2 normalized median scalar value ln(r1/f1) [44]: 1.77
H1L1:H1L2 normalized median ratio [18]: 12%
Substance: D3H44 Fab heavy chain L143E_K145T_Q179E with C-terminal ABD2-His6 tag
